{"source": "patent US20220332804A1", "about": "(CSL INNOVATION, published 2022)", "test_in_all_cases": "SPR, antibody captured, C2 as analyte;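 note: biacore SPR at 37 °C, anti-C2 mAbs captured via goat anti-human IgG on CM5 chips, double-referenced sensorgrams fit to a 1:1 kinetic or steady-state model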", "key": {"[1]": {"target": "T1, human C2 I438A (human, UniProt P06681 21-752)", "T1 sequence": "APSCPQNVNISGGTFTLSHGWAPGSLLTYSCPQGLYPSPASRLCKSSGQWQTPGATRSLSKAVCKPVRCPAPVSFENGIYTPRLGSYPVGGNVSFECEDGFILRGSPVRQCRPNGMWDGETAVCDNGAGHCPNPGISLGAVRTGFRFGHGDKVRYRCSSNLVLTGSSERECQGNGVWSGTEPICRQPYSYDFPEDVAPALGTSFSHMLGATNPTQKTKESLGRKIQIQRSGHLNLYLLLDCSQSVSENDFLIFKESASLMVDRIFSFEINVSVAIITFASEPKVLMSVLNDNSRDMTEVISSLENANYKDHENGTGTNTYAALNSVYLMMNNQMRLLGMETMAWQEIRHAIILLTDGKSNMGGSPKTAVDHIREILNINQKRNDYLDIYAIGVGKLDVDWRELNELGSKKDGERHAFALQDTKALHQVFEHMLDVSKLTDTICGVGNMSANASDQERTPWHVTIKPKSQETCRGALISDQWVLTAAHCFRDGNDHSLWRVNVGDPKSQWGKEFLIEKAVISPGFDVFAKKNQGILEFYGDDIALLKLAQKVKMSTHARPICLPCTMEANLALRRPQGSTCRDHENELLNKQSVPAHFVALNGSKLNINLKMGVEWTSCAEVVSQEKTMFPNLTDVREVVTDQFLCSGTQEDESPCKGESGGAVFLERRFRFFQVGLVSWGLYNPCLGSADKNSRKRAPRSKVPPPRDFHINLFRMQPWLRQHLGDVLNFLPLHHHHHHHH"}, "[2]": {"target": "T2, human C2 K244A (human, UniProt P06681 21-752)", "T2 sequence": "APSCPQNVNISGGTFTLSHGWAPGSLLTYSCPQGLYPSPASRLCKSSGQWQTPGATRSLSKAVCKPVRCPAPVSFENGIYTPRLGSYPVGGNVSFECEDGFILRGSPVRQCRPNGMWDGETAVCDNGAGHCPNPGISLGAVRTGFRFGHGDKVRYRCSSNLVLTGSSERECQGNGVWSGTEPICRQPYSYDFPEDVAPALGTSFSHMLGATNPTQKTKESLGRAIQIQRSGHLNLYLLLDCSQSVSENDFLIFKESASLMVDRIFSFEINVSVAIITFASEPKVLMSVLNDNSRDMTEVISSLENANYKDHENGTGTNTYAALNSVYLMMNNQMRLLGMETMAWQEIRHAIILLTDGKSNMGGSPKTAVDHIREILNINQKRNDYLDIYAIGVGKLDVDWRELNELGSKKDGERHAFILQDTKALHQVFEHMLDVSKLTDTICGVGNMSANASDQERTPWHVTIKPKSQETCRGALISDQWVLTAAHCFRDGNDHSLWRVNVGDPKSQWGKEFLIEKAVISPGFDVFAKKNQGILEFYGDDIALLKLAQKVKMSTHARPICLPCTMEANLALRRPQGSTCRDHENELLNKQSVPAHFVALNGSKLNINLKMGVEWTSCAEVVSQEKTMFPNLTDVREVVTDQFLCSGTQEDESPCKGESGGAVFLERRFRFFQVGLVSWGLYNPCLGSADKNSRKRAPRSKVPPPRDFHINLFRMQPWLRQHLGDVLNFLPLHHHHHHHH"}, "[3]": {"target": "T3, human C2 R719A (human, UniProt P06681 21-752)", "T3 sequence": "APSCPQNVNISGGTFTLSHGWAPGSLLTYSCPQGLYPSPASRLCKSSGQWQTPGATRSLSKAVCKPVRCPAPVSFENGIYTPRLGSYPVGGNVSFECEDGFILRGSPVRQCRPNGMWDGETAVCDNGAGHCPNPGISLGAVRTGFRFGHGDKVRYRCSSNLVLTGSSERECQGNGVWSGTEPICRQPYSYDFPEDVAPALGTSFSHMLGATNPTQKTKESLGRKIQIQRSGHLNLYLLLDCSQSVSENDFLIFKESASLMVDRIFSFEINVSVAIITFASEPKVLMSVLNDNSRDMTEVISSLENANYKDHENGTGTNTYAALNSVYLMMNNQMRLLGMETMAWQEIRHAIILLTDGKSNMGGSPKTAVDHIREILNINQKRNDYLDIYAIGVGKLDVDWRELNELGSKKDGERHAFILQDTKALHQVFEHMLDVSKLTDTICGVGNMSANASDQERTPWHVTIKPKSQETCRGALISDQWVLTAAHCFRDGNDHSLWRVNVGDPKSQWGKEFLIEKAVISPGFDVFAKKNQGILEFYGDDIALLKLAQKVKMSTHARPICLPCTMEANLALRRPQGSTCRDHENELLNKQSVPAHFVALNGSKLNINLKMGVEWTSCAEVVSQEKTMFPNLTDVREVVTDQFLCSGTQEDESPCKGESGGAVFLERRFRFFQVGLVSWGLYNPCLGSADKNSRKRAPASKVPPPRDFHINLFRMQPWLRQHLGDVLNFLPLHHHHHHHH"}, "[4]": {"target": "T4, human C2 R510A (human, UniProt P06681 21-752)", "T4 sequence": "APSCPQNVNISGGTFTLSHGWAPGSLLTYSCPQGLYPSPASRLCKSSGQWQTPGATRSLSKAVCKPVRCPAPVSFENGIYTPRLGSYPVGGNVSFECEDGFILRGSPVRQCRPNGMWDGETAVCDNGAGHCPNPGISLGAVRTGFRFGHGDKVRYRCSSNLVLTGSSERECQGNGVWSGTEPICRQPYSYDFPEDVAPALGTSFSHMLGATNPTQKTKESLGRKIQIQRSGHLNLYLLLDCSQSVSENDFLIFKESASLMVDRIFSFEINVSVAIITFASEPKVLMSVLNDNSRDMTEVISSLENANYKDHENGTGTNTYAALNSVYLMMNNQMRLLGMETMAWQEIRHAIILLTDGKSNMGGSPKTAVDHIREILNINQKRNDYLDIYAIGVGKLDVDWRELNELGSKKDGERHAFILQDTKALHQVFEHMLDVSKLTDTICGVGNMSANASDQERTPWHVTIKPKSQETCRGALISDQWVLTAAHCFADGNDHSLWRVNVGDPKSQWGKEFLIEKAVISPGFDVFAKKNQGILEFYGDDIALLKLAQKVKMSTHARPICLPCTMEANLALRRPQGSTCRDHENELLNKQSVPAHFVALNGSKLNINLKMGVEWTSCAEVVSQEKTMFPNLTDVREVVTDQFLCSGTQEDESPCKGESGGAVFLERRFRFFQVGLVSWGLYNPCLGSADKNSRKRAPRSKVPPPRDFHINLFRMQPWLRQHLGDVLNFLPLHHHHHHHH"}}}
{"binder": "RF16-226 (antibody, human IgG4 S228P, lambda, pH-dependent anti-C2 antibody from a phage display library; also called WT) heavy: not shown light: SYELTQPPSVSVSPGQTARITCSGDALTSKYVAWYQQKSGLAPLLVIYEDTRRPSGIPAKFSGSSSGSVATLTISGAHGDDEADYYCYSTDASGHQRVFGGGTKLTVLSQPKAAPSVTLFPPSSEELQANKATLVCLISDFYPGAVTVAWKADGSPVKAGVETTKPSKQSNNKYAASSYLSLTPEQWKSHRSYSCQVTHEGSTVEKTVAPTECS", "values": [{"measurement": "Kd", "setting": "[1]", "result": 8.7, "unit": "nM"}, {"measurement": "Kd", "setting": "[2]", "result": 22.7, "unit": "nM"}, {"measurement": "Kd", "setting": "[3]", "result": 8.5, "unit": "nM"}, {"measurement": "Kd", "setting": "[4]", "result": 110, "unit": "nM"}]}
